Blank lines part the entries; values can stand above or below the binder they belong to.
Assays:
[1] = target: T1, cynoCD47/mFc fusion protein (extracellular domain of cynomolgus CD47 fused to mouse Fc) (Macaca fascicularis, UniProt A0A2K5X4I2); test: SPR; Biacore 2000; antibody amine coupled to a CM4 chip, CD47 constructs as analyte; 10 mM HEPES pH 7.4, 150 mM NaCl, 0.005% tween-20; 25°C; global fit to a 1:1 model with mass transport; conditions: both partners purified
T1 construct: cynomolgus monkey CD47 extracellular domain, cDNA cloned from a cynomolgus spleen cDNA library (BioChain); differs from human CD47 at 3 amino acids in the extracellular domain; also called cyno-CD47 Fc fusion protein; cynomolgus monkey CD47

[2] = target: T2, human CD47/mFc fusion protein (extracellular domain of human CD47 fused to mouse Fc) (human, UniProt Q08722); test: ELISA; competition: plates coated with 1 μg/ml huCD47/mFc; 10 μg/ml biotin-labeled mouse 5F9 with various concentrations of unlabeled Hu5F9-G4, room temperature 1 hr; HRP-streptavidin; conditions: both partners purified
T2 construct: human CD47 extracellular domain, cloned from a full-length human CD47 cDNA (Open Biosystems); also called huCD47/mFc; hCD47/mFc; source: purified recombinant

[3] = target: T3, human CD47 on stably transfected rat YB2/0 cells (Homo sapiens, UniProt Q08722); test: flow cytometry on cells; hybridoma clones (supernatants) tested by FACS on parental or human CD47-transfected rat YB2/0 cells; conditions: partners not purified
T3 construct: human CD47 expressed on the surface of YB2/0 cells; also called CD47-transfected YB2/0 cells; source: rat YB2/0 cells, stably transfected, on cells

- Kd [1]: 0.01 nM
B1: Hu5F9-G4 (humanized 5F9 antibody, human IgG4 with Ser228Pro) (antibody, V domains shown)
VH: QVQLVQSGAEVKKPGASVKVSCKASGYTFTNYNMHWVRQAPGQRLEWMGTIYPGNDDTSYNQKFKDRVTITADTSASTAYMELSSLRSEDTAVYYCARGGYRAMDYWGQGTLVTVSS
VL: DIVMTQSPLSLPVTPGEPASISCRSSQSIVYSNGNTYLGWYLQKPGQSPQLLIYKVSNRFSGVPDRFSGSGSGTDFTLKISRVEAEDVGVYYCFQGSHVPYTFGQGTKLEIK

- binding result [2]: binds
- binding result [3]: binds
B2: mouse anti-human CD47 monoclonal antibody 5F9 (antibody, V domains shown)
VH: QVQLQQPGAELVKPGASVMMSCKASGYTFTNYNMHWVKQTPGQGLEWIGTIYPGNDDTSYNQKFKDKATLTADKSSSAAYMQLSSLTSEDSAVYYCARGGYRAMDYWGQGTSVTVSS
VL: DVLMTQTPLSLPVSLGDQASISCRSSQSIVYSNGNTYLGWYLQKPGQSPKLLIYKVSNRFSGVPDRFSGSGSGTDFTLKISRVEAEDLGVYHCFQGSHVPYTFGGGTKVEIK
notes: mouse 5F9 VH (IGHV1 family); mouse heavy chain constant region; mouse 5F9 VL (IGKV1 subgroup); mouse light chain constant region; not described beyond the IGKV1 V segment; also called mouse 5F9; parental mouse 5F9; source: hybridoma (spleen cells of immunized Balb/c mice fused with SP2/0 cells); supernatant in the FACS screen; copies: 2 + 2

From publication PMC4577081 (PLoS ONE, 2015)
